Measurements as given in the RNAGym collection of RNA variant scans (doi:10.7554/elife.80360).

B1: Hammerhead Ribozyme (parent)
chain: ACCGGAUGUGCUUUCCGGUCUGAUGAGUCCGUGAGGACGAAACAG

Variants of: B1
Experiment: self-cleavage, relative activity (ratio to wild type); higher = more cleavage; co-transcriptional

Row | Variant | self-cleavage
1 | C38A | 0.833
2 | C38G | 0.767
3 | C38U | 0.974
4 | A37G A44C | 0.313
5 | A37G A44U | 0.595
6 | A37G A44G | 0.74
7 | A37G C43U | 0.33
8 | A37G C43A | 0.332
9 | A37G C43G | 0.385
10 | A34U A42G | 0.258
11 | A34U A42C | 0.3
12 | A34U A42U | 0.306
13 | G35A C43U | 0.401
14 | G35A C43G | 0.353
15 | G35A C43A | 0.322
16 | A37C A44U | 0.368
17 | A37C A44G | 0.77
18 | A37C A44C | 0.28
19 | A37C A41G | 0.404
20 | A37C A41U | 0.296
21 | A37C A41C | 0.285

Row | Variant | self-cleavage
22 | G35A G39C | 0.346
23 | G35A G39U | 0.328
24 | G35A G39A | 0.312
25 | G35U A37G | 0.679
26 | G35U A37C | 0.548
27 | G35U A37U | 0.52
28 | A37C | 1
29 | A37G | 0.886
30 | A37U | 0.799
31 | G36U G39A | 0.352
32 | G36U G39C | 0.34
33 | G36U G39U | 0.333
34 | A34U A41G | 0.305
35 | A34U A41U | 0.281
36 | A34U A41C | 0.289
37 | G36U A37C | 0.331
38 | G36U A37G | 0.479
39 | G36U A37U | 0.724
40 | A34U A44U | 0.437
41 | A34U A44C | 0.447
42 | A34U A44G | 1.01

Row | Variant | self-cleavage
43 | G35C A42U | 0.324
44 | G35C A42C | 0.283
45 | G35C A42G | 0.26
46 | G35C A37G | 0.563
47 | G35C A37C | 0.504
48 | G35C A37U | 0.517
49 | G36C C38G | 0.369
50 | G36C C38U | 0.335
51 | G36C C38A | 0.403
52 | A37U C43A | 0.31
53 | A37U C43U | 0.38
54 | A37U C43G | 0.271
55 | A37G G45U | 0.567
56 | A37G G45C | 0.416
57 | A37G G45A | 0.486
58 | G36C A37U | 0.29
59 | G36C A37C | 0.296
60 | G36C A37G | 0.748
61 | C38G C43U | 0.393
62 | C38G C43A | 0.456
63 | C38G C43G | 0.288

Row | Variant | self-cleavage
64 | G36A A37G | 0.556
65 | G36A A37C | 0.414
66 | G36A A37U | 0.533
67 | G36A G45C | 0.422
68 | G36A G45A | 0.444
69 | G36A G45U | 0.452
70 | A34U G35U | 0.584
71 | A34U G35C | 0.631
72 | A34U G35A | 0.638
73 | C38A A40G | 0.369
74 | C38A A40U | 0.307
75 | C38A A40C | 0.411
76 | A37G G39A | 0.362
77 | A37G G39U | 0.307
78 | A37G G39C | 0.371
79 | G35A G45A | 0.452
80 | G35A G45C | 0.437
81 | G35A G45U | 0.471
82 | G35U C43G | 0.34
83 | G35U C43U | 0.43
